Legend:
[1] = system: Nb.BsaI N441D/R442G (A11) N441D/R442G; test: cleavage_in_vitro; settings: bottom-strand nicking; estimated in cell extract
Nb.BsaI R442G R442G = test: cleavage_in_vitro; settings: predominant nicking; about 8-fold lower than N441D/R442G

## GGTCTCNNNNN (double strand) [BsaI site (in supercoiled pUC19)]
[1]
  activity (units/g wet cells): 800000
Nb.BsaI R442G R442G
  activity (units/g wet cells): 100000
